The values below come from patent publication US11433139B2, “Peptide vaccines against interleukin-31” (Zoetis Services LLC, priority 2018, dated 2022).

For assay [1], the system named is feline IL-31. Description: Inhibition of feline IL-31 induced pSTAT3 signaling in canine DH-82 cells. In kind it is cell-based. To be noted: feline IL-31, pSTAT3, canine DH82 cells (FIG. 3). How it is done: (§1) To identify candidates with inhibitory activity, antibodies were assessed for their ability to affect IL-31-mediated STAT3 phosphorylation in either a canine or feline cell-based assay. STAT3 phosphorylation was determined in canine DH-82 (ATCC® CRL-10389™) or feline FCWF4 macrophage-like cells (ATCC CRL-2787). DH82 and FCWF4 cells were primed with canine interferon gamma (R&D Systems, Minneapolis, Minn.) at 10 ng/mL for 24 hours or feline interferon gamma (R&D Systems, Minneapolis, Minn.) at 125 ng/mL for 96 hours, respectively, to increase receptor expression. Both cell types were serum starved for 2 hours prior to IL-31 and mAb treatment. Using two independent methods, all candidate mAbs were evaluated for their ability to inhibit either 1 μg/mL canine or 0.2 μg/mL feline IL-31 induced STAT3 phosphorylation. […] To ensure complex formation, a one hour co-incubation of mAb and IL-31 cytokine prior to cell stimulation was completed. IL-31 cell stimulation was carried out for five minutes. STAT3 phosphorylation was measured using AlphaLISA SureFire ULTRA™ technology (Perkin Elmer, Waltham, Mass.). In the case where antibody concentration and purity are unknown, hybridoma supernatants were qualitatively measured for their ability to inhibit STAT3 phosphorylation following a 1 hour co-incubation with […] IL-31. The potency of individual monoclonal antibodies defined by their ability to inhibit IL-31 mediated STAT3 phosphorylation in these assays was considered the key selection criteria for further advancement of select antibodies. The term potency refers to the IC50 value calculated from these assays and is the concentration of the antibody where signaling induced by IL-31 is reduced to one half its maximal value.
Target sequence in this assay (as listed by the source): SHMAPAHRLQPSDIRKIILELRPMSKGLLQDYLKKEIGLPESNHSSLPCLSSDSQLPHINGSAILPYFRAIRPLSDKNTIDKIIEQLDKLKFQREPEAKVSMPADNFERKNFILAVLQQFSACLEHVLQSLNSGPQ

In assay [2] the target is T1, canine IL-31 (Canis lupus familiaris, UniProt A0A8I3S3D1).
T1 construct: made in house; host or cells: CHO cells (CHROMOS ACE system)
T1 sequence (A0A8I3S3D1 24-159): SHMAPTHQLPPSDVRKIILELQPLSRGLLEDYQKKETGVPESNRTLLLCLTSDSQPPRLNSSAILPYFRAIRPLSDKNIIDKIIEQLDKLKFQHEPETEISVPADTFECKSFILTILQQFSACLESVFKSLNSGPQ
Nature of the assay: Inhibition of canine IL-31 induced pSTAT3 signaling in canine DH-82 and feline FCWF4 cells. In kind it is cell-based. As to conditions: canine IL-31; canine and feline cell types, cell type of the values not specified. The protocol:
as §1

For assay [3], the system named is feline IL-31. Nature of the assay: Inhibition of feline IL-31 induced pSTAT3 signaling in feline FCWF4 macrophage-like cells. In kind it is cell-based. To be noted: 0.2 μg/mL feline IL-31, pSTAT3, FCWF4 cells (FIG. 3). How it is done: as §1
The target of assay [4] is feline IL-31. Description: Affinity of anti-IL-31 antibodies by surface plasmon resonance (Biacore), feline IL-31 surface. The assay is classed as binding. To be noted: IL-31 conjugated to the surface (FIG. 2). How it is done: (§2) The affinity with which candidate mAbs bind canine and feline IL-31 was determined using surface plasmon resonance (SPR) on a Biacore system (Biocore Life Sciences (GE Healthcare), Uppsala, Sweden). To avoid affinity differences associated with differential surface preparation that can occur when immobilizing antibodies to surfaces; a strategy was employed where IL-31 was directly conjugated to the surface. Immobilization was obtained by amine coupling 5 μg/mL IL-31 using N-hydroxysuccinimide (NHS)/1-Ethyl-3-(3-dimethylaminopropyl) carbodiimide (EDC) chemistry. Chips were quenched with ethanolamine and the affinity with which all candidate mAbs bound to the immobilized IL-31 was evaluated. All curves were fit to a 1:1 model. Affinity constants (KD) less than 1×10^−11M (1E-11 M) are below the lower limit of quantitation of detection for the instrument. Results for affinity measurements are described herein.
For orientation: In SPR one partner is held on a chip, and binding of the other changes the refractive index at the surface.
Target sequence in this assay (as listed by the source): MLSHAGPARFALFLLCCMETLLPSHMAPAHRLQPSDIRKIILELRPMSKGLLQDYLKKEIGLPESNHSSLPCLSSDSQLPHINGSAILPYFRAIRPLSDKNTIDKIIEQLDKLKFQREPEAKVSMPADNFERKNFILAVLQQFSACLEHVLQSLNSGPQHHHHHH

Assay [5] concerns feline IL-31 15H05 mutant. Description: Indirect ELISA, binding to feline IL-31 15H05 mutant. As to conditions: compared with wildtype. The protocol: (§3) Mice and dogs were immunized with recombinant canine IL-31 (SEQ ID No. 155) for the purpose of identifying antibodies. Serum antibody titers from immunized animals were determined using an enzyme linked immunosorbent assay (ELISA). Canine or feline IL-31 (50 ng/well) was immobilized to polystyrene microplates and used as a capture antigen. Serum from immunized animals was diluted in phosphate buffered saline with 0.05% tween-20 (PBST). The presence of anti-IL-31 antibodies was detected with an appropriate secondary HRP labeled antibody. Following addition of a chromogenic substrate (SureBlue Reserve TMB 1-Component Microwell Peroxidase Substrate, KPL, Inc., Gaithersburg, Md.) and a ten minute incubation at room temperature (RT) the reaction was stopped with the addition of […] of 0.1 N HCl. The absorbance of each well was determined at an optical density (OD) of 450 nm. Antibodies were selected for their ability to bind canine and feline IL-31 using an ELISA. In some cases, further characterization was performed at the time of selection using an ELISA with a mutant form of the feline IL-31 protein as a capture antigen. Cells producing antibodies with desired binding and inhibitory properties were chosen for sequence analysis of RNA transcripts representing the variable heavy (VH) and variable light (VL) IgG chains.
Sequence of feline IL-31 15H05 mutant (as listed by the source, change not shown): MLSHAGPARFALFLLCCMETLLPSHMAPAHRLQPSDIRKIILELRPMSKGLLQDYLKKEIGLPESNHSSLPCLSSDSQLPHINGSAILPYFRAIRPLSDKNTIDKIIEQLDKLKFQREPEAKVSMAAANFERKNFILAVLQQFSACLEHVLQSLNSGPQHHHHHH
(§4) For the indirect ELISA method, antibody binding to wildtype and feline IL-31 15H05 mutant proteins was assessed. […] In comparison, the 11E12 antibody bound to the wild-type feline IL-31 and its binding was not impacted by the mutations in the 15H05 epitope region as evidenced by the data in FIG. 4. To confirm binding, biacore analysis was performed using canine, feline, equine, human, feline 15H05 mutant, and feline 11E12 mutant IL-31 proteins as surfaces and a single test concentration of antibody. Similar to ELISA observations, all antibodies tested bound to wildtype feline IL-31. In agreement with the data described above in this section, mouse antibodies 11 E12 and 15H05 both bound to canine and feline IL-31 surfaces. […] From this group of nine fully canine antibodies, only ZIL1 and ZIL9 cross-reacted with equine IL-31. Of note, antibody 15H05 was the only one of all assayed herein that bound to canine, feline, and equine IL-31 indicating some level of epitope conservation across the three species. In contrast, none of the antibodies described herein bound to human IL-31. Additional biacore surfaces were used to verify ELISA observations showing differential binding of antibodies to wildtype feline IL-31 and two proteins with mutations in the 15H05 (15H05 mutant) or 11 E12 (11E12 mutant) epitopes. […] Differing results can be attributed to differences in the two assay methodologies.
(§5) To determine the impact of mAbs 11E12 and 15H05 ability to bind these mutant forms of feline IL-31, an indirect ELISA was run using the mutants directly coated on to an immunoassay plate. […] The minor attenuation of mAb 15H05s binding to the 11E12 mutant is likely due to translational effects of the mutations from movement of the two front helices effecting the 15H05 binding site. The mutations designed to affect mAb 15H05s binding (mutant 15H05) show a complete loss of mAb 1505s ability to bind this IL-31 mutant by ELISA. Unlike the 11E12 mutant, the changes in the random coil recognized by mAb 15H05 (mutant 15H05) had no impact on mAb 11E12 binding further supporting the distinction between the two epitopes (FIG. 6C).
(In general: In an ELISA, binding on a coated surface is turned into a signal by an enzyme label.)

The test system of assay [6] is wildtype feline IL-31. Nature of the assay: Indirect ELISA, binding to wildtype feline IL-31. How it is done: as §3, §4, §5
Sequence of wildtype feline IL-31 (as listed by the source): as the sequence (as listed by the source, change not shown) above, with A126P, A128D counted along it
The target of assay [7] is canine IL-31. Description: Affinity of anti-IL-31 antibodies by surface plasmon resonance (Biacore), canine IL-31 surface. In kind it is binding. As to conditions: IL-31 conjugated to the surface (FIG. 2). The protocol: as §2
Sequence of canine IL-31 (as listed by the source): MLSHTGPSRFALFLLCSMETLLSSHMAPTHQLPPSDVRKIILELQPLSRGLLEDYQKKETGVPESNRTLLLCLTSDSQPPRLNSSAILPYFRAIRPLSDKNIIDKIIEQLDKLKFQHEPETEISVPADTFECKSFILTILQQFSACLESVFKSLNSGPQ

B1: 15H05 mouse: canine chimera: mouse 15H05 variable regions on canine IgG constant regions (antibody)
heavy: QVQLQQSAAELARPGASVKMSCKTSGYTFTSYTIHWIKQRPGQGLEWIGNINPTSGYTENNQRFKDKTTLTVDRSSNTAYLQLHSLTSEDSAVYFCARWGFKYDGEWSFDVWGAGTTVTVSSASTTAPSVFPLAPSCGSTSGSTVALACLVSGYFPEPVTVSWNSGSLTSGVHTFPSVLQSSGLYSLSSMVTVPSSRWPSETFTCNVAHPASKTKVDKPVPKRENGRVPRPPDCPKCPAPEMLGGPSVFIFPPKPKDTLLIARTPEVTCVVVDLDPEDPEVQISWFVDGKQMQTAKTQPREEQFNGTYRVVSVLPIGHQDWLKGKQFTCKVNNKALPSPIERTISKARGQAHQPSVYVLPPSREELSKNTVSLTCLIKDFFPPDIDVEWQSNGQQEPESKYRTTPPQLDEDGSYFLYSKLSVDKSRWQRGDTFICAVMHEALHNHYTQESLSHSPGK
light: DIQMNQSPSSLSASLGDTITVTCRASQGISIWLSWYQQKPGNIPKVLINKASNLHIGVPPRFSGSGSGTHFTLTITSLQPEDIATYYCLQSQTYPLTFGGGTKLEINRNDAQPAVYLFQPSPDQLHTGSASVVCLLNSFYPKDINVKWKVDGVIQDTGIQESVTEQDKDSTYSLSSTLTMSSTEYLSHELYSCEITHKSLPSTLIKSFQRSEC
As to B1, the “potency (IC50) against feline IL-31 in canine DH82 cells” value (shortened to “potency (IC50) … in canine DH82 cells”) in assay [1] is 0.71 µg/mL. In assay [2], the “IC50 against canine IL-31” value came to 12.49 µg/mL.

B2: ZTS-927: felinized anti IL-31 15H05 mAb, FEL_15H05_VH1 with Feline_HC_AlleleA_wt, FEL-15H05-VL1_FW2 light chain (antibody, V domains shown)
VH: QVLLVQSGAEVRTPGASVKIFCKASGYSFTSYTIHWLRQAPAQGLEWMGNINPTSGYTENNQRFKDRLTLTADTSTNTAYMELSSLRSADTAMYYCARWGFKYDGEWSFDVWGAGTTVTVSS
VL: EIQMTQSPSSLSASPGDRVTITCRASQGISIWLSWYQQKPGNIPKVLINKASNLHIGVPSRFSGSGSGTDFTLTISSLEPEDAATYYCLQSQTYPLTFGGGTKLEIK
modifications: feline constant regions joined; Felinized variable heavy mAb sequence, from Mus musculus and Felis catus; Felinized variable light mAb sequence, from Mus musculus and Felis catus
On to B2, for which the “potency (IC50) … in canine DH82 cells” value in assay [1] was “highly consistent with values derived from the chimeric and mouse form”. Moreover, the “potency (IC50) against feline IL-31 in feline FCWF4 cells” value in assay [3] is “highly consistent with values derived from the chimeric and mouse form”. Besides, the “IC50 against canine IL-31” value in assay [2] is listed as “proportionally higher”. The “affinity (KD) to feline IL-31” value in assay [4] is “highly consistent with that of the mouse and chimeric form”.

B3: ZIL154: fully canine anti IL-31 antibody, VH SEQ ID NO: 99, VL SEQ ID NO: 101 (antibody, listed as Canis familiaris, V domains shown)
VH: EVHLVESGGDLVKPWGSLRLSCVASGFTFSDRGMSWVRQSPGKGLQWVAYIRYDGSRTDYADAVEGRFTISRDNAKNTLYLQMNSLRAEDTAVYYCARWDGSSFDYWGQGTLVTVSS
VL: DIVVTQTPLSLSVSPGETASFSCKASQSLLHSDGNTYLDWFRQKPGQSPQRLIYKVSNRDPGVPDRFSGSGSGTDFTLRISGVEADDAGLYYCMQAIHFPLTFGAGTKVELK
B3: the “binding to feline IL-31 15H05 mutant (ELISA)” value in assay [5] is on record as “binding was impacted”. In assay [6], the “binding to wildtype feline IL-31 (ELISA)” value was “capable of binding”.

B4: ZIL11: fully canine anti IL-31 antibody, VH SEQ ID NO: 87, VL SEQ ID NO: 89 (antibody, listed as Canis familiaris, V domains shown)
VH: EVQLVESGGDLVKPAGSLRLSCVASGFTFRTYVMNWVRQAPGKGLQWVASINGGGSSPTYADAVRGRFTVSRDNAQNSLFLQMNSLRAEDTAVYFCVVSMVGPFDYWGQGTLVTVSS
VL: SSVLTQPPSVSVSLGQTATISCSGESLSNYYAQWFQQKAGQAPVLVIYKDTERPSGIPDRFSGSSSGNTHTLTISGARAEDEADYYCESAVSSDTIVFGGGT
For the molecule B4, the “binding to feline IL-31 15H05 mutant (ELISA)” value in assay [5] is “binding was impacted”. For the same molecule, the “binding to wildtype feline IL-31 (ELISA)” value in assay [6] is “capable of binding”.

B5: Feline 11E12 1.2: felinized 11E12, FEL_11E12_VH1 paired with FEL_11E12_VL2 (antibody, V domains shown)
VH: QVLLVQSGAEVKKPGASVKIFCKASGYSFTYYDINWLRQAPEQGLEWMGWIFPGDGGTKYNETFKGRLTLTADTSTNTVYMELSSLRSADTAMYYCARGGTSVIRDAMDYWGQGALVTVSS
VL: EVVLTQSSAFLSRTLKEKATITCRASESVDNYGISFMHWYQQKPNQAPKLLVKRASNLESGAPSRFSGSGSGTDFTLTISSPEPEDAATYYCQQSNKDPLTFGQGT
Regarding B5, the “potency (IC50) … in canine DH82 cells” value in assay [1] is listed as “complete loss of cellular potency”. Besides, the “affinity (KD) to canine IL-31” value in assay [7] was “total loss of binding”. Moreover, the “potency (IC50) against feline IL-31 in feline FCWF4 cells” value in assay [3] was “complete loss of cellular potency”. In addition, in assay [4], the “affinity (KD) to feline IL-31” value is listed as “total loss of binding”.

B6: Feline 11E12 1.1 FW2: Fel_11E12_VH1 paired with Feline 11E12 VL1 carrying mouse FW2 (antibody, V domains shown)
VH: B5 VH
VL: EIQMTQSPSSLSASPGDRVTITCRASESVDNYGISFMHWYQQKPGQPPKLLIYRASNLESGVPSRFSGSGSGTDFTLTISSLEPEDAATYYCQQSNKDPLTFGQGT
Regarding B6, in assay [1], the “potency (IC50) … in canine DH82 cells” value is listed as “increased potency”. Also, the “affinity (KD) to canine IL-31” value in assay [7] is “detrimental effect”. For the same molecule, in assay [4], the “affinity (KD) to feline IL-31” value was “KD equivalent to that of the mouse and chimeric form”.
